B1: HESX1 (parent)
chain: SKYENYFSASERLSLKRELSWYRG
B2: TRIM63 (parent)
chain: QEKKLSFIEALIQQYQEQLDKSTK
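Also: lentivirally expressed fusions sorted by FACS into six bins by GFP to DsRed ratio, PSI derived from sequencing read proportions per bin multiplied by bin number.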

Variants of: B1
Experiment: protein stability index of a GFP-peptide fusion (GPS, HEK-293T) (PSI 1-6); higher = more stable
Conditions: c terminus: a fixed tail appended
Variant SKYENYFSASLRLSLKRELSWYRG has a protein stability index of 2.11. SKYENYFSASARLSLKRELSWYRG gave a protein stability index of 1.57. Variant SKYENYFSASVRLSLKRELSWYRG has a protein stability index of 2.37. SKYENYFSDSERLSLKRELSWYRG showed a protein stability index of 2.73. For SKYENYFSKSERLSLKRELSWYRG, the protein stability index was 2.01. In the case of SKYENYFSVSERLSLKRELSWYRG, the protein stability index is reported as 1.41. In the case of SKYENYFSISERLSLKRELSWYRG, the protein stability index is reported as 1.44. With SKYENYFSHSERLSLKRELSWYRG the protein stability index was 1.59. Variant SKYENYFSASERLSLKRELSWYRA has a protein stability index of 1.81. With SKYVNYFSASERLSLKRELSWYRG the protein stability index was 2.1. Variant SKYRNYFSASERLSLKRELSWYRG has a protein stability index of 2.54. In the case of SKYCNYFSASERLSLKRELSWYRG, the protein stability index is reported as 2.24. SKYSNYFSASERLSLKRELSWYRG showed a protein stability index of 1.27. Variant SKYYNYFSASERLSLKRELSWYRG has a protein stability index of 2.33. In the case of SKYENYFSASERLSLKREPSWYRG, the protein stability index is reported as 2. SKYENYFSASERLSLKRETSWYRG showed a protein stability index of 2.31. In the case of SKKENYFSASERLSLKRELSWYRG, the protein stability index is reported as 3.46. Variant SKIENYFSASERLSLKRELSWYRG has a protein stability index of 2.26. SKMENYFSASERLSLKRELSWYRG gave a protein stability index of 1.59. With SKSENYFSASERLSLKRELSWYRG the protein stability index was 2.97. With SKYENYFRASERLSLKRELSWYRG the protein stability index was 1.44. With SKYENYFDASERLSLKRELSWYRG the protein stability index was 3.25. For SKYENYFSAHERLSLKRELSWYRG, the protein stability index was 2.38. Variant SKYENYFSAKERLSLKRELSWYRG has a protein stability index of 2.72. SKYENYFSAMERLSLKRELSWYRG showed a protein stability index of 1.86. In the case of SKYENYFSASERLSLKRELMWYRG, the protein stability index is reported as 1.14. SKYENYFSASERLSLKRELTWYRG showed a protein stability index of 3.72. SKYENYFSASERLSLKRELLWYRG gave a protein stability index of 2.8. Work on SKYENGFSASERLSLKRELSWYRG yielded a protein stability index of 2.56. For SKYENKFSASERLSLKRELSWYRG, the protein stability index was 2.05. For SKYENSFSASERLSLKRELSWYRG, the protein stability index was 2.16. SKYENYFSASERLSLKRELSWYYG gave a protein stability index of 1.12. SKYENYFSASERLSLKRELSWYSG showed a protein stability index of 2.1. In the case of SKYENYFSASERLSLKRELSWYCG, the protein stability index is reported as 1.53. SKYENYFSASERLSLKRELSWYKG gave a protein stability index of 2.14. SKYENYFSASERLSLKRELSWYQG showed a protein stability index of 2.51. Work on SKYENYFSASERNSLKRELSWYRG yielded a protein stability index of 2.31. Variant SKYENYFSASERYSLKRELSWYRG has a protein stability index of 1.93. With SKYENYFSASERVSLKRELSWYRG the protein stability index was 2.72. With SKYENYFSASERKSLKRELSWYRG the protein stability index was 1.9. In the case of SKYENYFSASERLSKKRELSWYRG, the protein stability index is reported as 2.47. SKYENYFSASERLSTKRELSWYRG gave a protein stability index of 1.17. SKYENYFSASERLSRKRELSWYRG showed a protein stability index of 2.24. HKYENYFSASERLSLKRELSWYRG gave a protein stability index of 2.34. EKYENYFSASERLSLKRELSWYRG gave a protein stability index of 1.76. In the case of MKYENYFSASERLSLKRELSWYRG, the protein stability index is reported as 1.36. For SKYENYFSASERLSLKRELSAYRG, the protein stability index was 4.19. SKYENYFSASERLSLKRELSQYRG showed a protein stability index of 2.63. SKYENYFSASERLSLTRELSWYRG gave a protein stability index of 1.95. For SKYENYFSASERLWLKRELSWYRG, the protein stability index was 2.21. In the case of SKYENYFSASERLELKRELSWYRG, the protein stability index is reported as 2.14. SKYENYFSASERLILKRELSWYRG gave a protein stability index of 1.27. Work on SKYENYFSASERLSLKRELSWKRG yielded a protein stability index of 2.46. In the case of SKYENYFSASERLSLKRELSWPRG, the protein stability index is reported as 2.29. SKYENYFSASERLSLKRRLSWYRG showed a protein stability index of 2.5. Variant SKYENYFSASERLSLKRQLSWYRG has a protein stability index of 1.52. For SKYENYFSASETLSLKRELSWYRG, the protein stability index was 2.88. Variant SKYENYFSASEVLSLKRELSWYRG has a protein stability index of 1.55. SKYENYFSASENLSLKRELSWYRG gave a protein stability index of 1.79. With SKYENYFSASEQLSLKRELSWYRG the protein stability index was 1.95. In the case of SMYENYFSASERLSLKRELSWYRG, the protein stability index is reported as 1.7. For SEYENYFSASERLSLKRELSWYRG, the protein stability index was 2.05. In the case of SIYENYFSASERLSLKRELSWYRG, the protein stability index is reported as 1.45. SKYENYFSASERLSLKDELSWYRG gave a protein stability index of 2.21. In the case of SKYENYFSASERLSLKKELSWYRG, the protein stability index is reported as 2.27. For SKYENYFSASERLSLKHELSWYRG, the protein stability index was 2.1. SKYENYFSASERLSLKMELSWYRG gave a protein stability index of 2.72. SKYENYFSASERLSLKSELSWYRG gave a protein stability index of 1.56. Work on SKYENYFSASERLSLKTELSWYRG yielded a protein stability index of 1.9. Work on SKYEQYFSASERLSLKRELSWYRG yielded a protein stability index of 2.12. Variant SKYETYFSASERLSLKRELSWYRG has a protein stability index of 2.24.

Variants of: B2
Experiment: as above
Conditions: c terminus: a fixed tail appended
Variant TEKKLSFIEALIQQYQEQLDKSTK has a protein stability index of 2.23. For WEKKLSFIEALIQQYQEQLDKSTK, the protein stability index was 2.76. For CEKKLSFIEALIQQYQEQLDKSTK, the protein stability index was 2.37. For SEKKLSFIEALIQQYQEQLDKSTK, the protein stability index was 2.4. In the case of DEKKLSFIEALIQQYQEQLDKSTK, the protein stability index is reported as 2.21. In the case of GEKKLSFIEALIQQYQEQLDKSTK, the protein stability index is reported as 2.31. LEKKLSFIEALIQQYQEQLDKSTK showed a protein stability index of 1.49. FEKKLSFIEALIQQYQEQLDKSTK showed a protein stability index of 1.91. REKKLSFIEALIQQYQEQLDKSTK gave a protein stability index of 2.48. For IEKKLSFIEALIQQYQEQLDKSTK, the protein stability index was 2.03. Work on KEKKLSFIEALIQQYQEQLDKSTK yielded a protein stability index of 2.34. NEKKLSFIEALIQQYQEQLDKSTK showed a protein stability index of 2.49. With HEKKLSFIEALIQQYQEQLDKSTK the protein stability index was 2.28. VEKKLSFIEALIQQYQEQLDKSTK gave a protein stability index of 2.39. YEKKLSFIEALIQQYQEQLDKSTK gave a protein stability index of 2.02. MEKKLSFIEALIQQYQEQLDKSTK gave a protein stability index of 1.99. Variant EEKKLSFIEALIQQYQEQLDKSTK has a protein stability index of 2.74. For PEKKLSFIEALIQQYQEQLDKSTK, the protein stability index was 2.39. In the case of QDKKLSFIEALIQQYQEQLDKSTK, the protein stability index is reported as 2.74. With QCKKLSFIEALIQQYQEQLDKSTK the protein stability index was 1.52. QFKKLSFIEALIQQYQEQLDKSTK gave a protein stability index of 2.44. With QAKKLSFIEALIQQYQEQLDKSTK the protein stability index was 1.63. With QGKKLSFIEALIQQYQEQLDKSTK the protein stability index was 2.93.

— the supplement of paper PMC10567573
